Laboratory results reported in IntAct's records for PubMed 15467741.

B1: Merlin (Homo sapiens), P35240-3 (parent)
chain: MAGAIASRMSFSSLKRKQPKTFTVRIVTMDAEMEFNCEMKWKGKDLFDLVCRTLGLRETWFFGLQYTIKDTVAWLKMDKKVLDHDVSKEEPVTFHFLAKFYPENAEEELVQEITQHLFFLQVKKQILDEKIYCPPEASVLLASYAVQAKYGDYDPSVHKRGFLAQEELLPKRVINLYQMTPEMWEERITAWYAEHRGRARDEAEMEYLKIAQDLEMYGVNYFAIRNKKGTELLLGVDALGLHIYDPENRLTPKISFPWNEIRNISYSDKEFTIKPLDKKIDVFKFNSSKLRVNKLILQLCIGNHDLFMRRRKADSLEVQQMKAQAREEKARKQMERQRLAREKQMREEAERTRDELERRLLQMKEEATMANEALMRSEETADLLAEKAQITEEEAKLLAQKAAEAEQEMQRIKATAIRTEEEKRLMEQKVLEAEVLALKMAEESERRAKEADQLKQDLQEAREAERRAKQKLLEIATKPTYPPMNPIPAPLPPDIPSFNLIGDSLSFDFKDTDMKRLSMEIEKEKVEYMEKSKHLQEQLNELKTEIEALKLKERETALDILHNENSDRGGSSKHNTIKKPQAQGRRPICI
partner: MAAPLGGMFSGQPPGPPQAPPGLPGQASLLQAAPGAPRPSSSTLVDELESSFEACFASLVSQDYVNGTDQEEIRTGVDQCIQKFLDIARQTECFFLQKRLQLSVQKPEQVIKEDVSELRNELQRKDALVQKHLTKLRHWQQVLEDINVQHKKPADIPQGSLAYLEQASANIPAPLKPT
B2: Merlin (Homo sapiens), P35240-1 (parent)
chain: MAGAIASRMSFSSLKRKQPKTFTVRIVTMDAEMEFNCEMKWKGKDLFDLVCRTLGLRETWFFGLQYTIKDTVAWLKMDKKVLDHDVSKEEPVTFHFLAKFYPENAEEELVQEITQHLFFLQVKKQILDEKIYCPPEASVLLASYAVQAKYGDYDPSVHKRGFLAQEELLPKRVINLYQMTPEMWEERITAWYAEHRGRARDEAEMEYLKIAQDLEMYGVNYFAIRNKKGTELLLGVDALGLHIYDPENRLTPKISFPWNEIRNISYSDKEFTIKPLDKKIDVFKFNSSKLRVNKLILQLCIGNHDLFMRRRKADSLEVQQMKAQAREEKARKQMERQRLAREKQMREEAERTRDELERRLLQMKEEATMANEALMRSEETADLLAEKAQITEEEAKLLAQKAAEAEQEMQRIKATAIRTEEEKRLMEQKVLEAEVLALKMAEESERRAKEADQLKQDLQEAREAERRAKQKLLEIATKPTYPPMNPIPAPLPPDIPSFNLIGDSLSFDFKDTDMKRLSMEIEKEKVEYMEKSKHLQEQLNELKTEIEALKLKERETALDILHNENSDRGGSSKHNTIKKLTLQSAKSRVAFFEEL
partner: B1 partner

Variants of: B1
Conditions: with med28_human MED28, Q9H204

Row | effect of a mutation on the interaction | Variant
1 | increasing interaction | S518A

Variants of: B2
Conditions: with med28_human MED28, Q9H204

Row | effect of a mutation on the interaction | Variant
2 | increasing interaction | S518A
